Measurements from patent US7803904 (Takeda / Millennium, dated 2010).
One block for each binder: values may come before it.

Tests used:
human α4β7 integrin [1] = biological target: T1, human α4β7 integrin (human, UniProt P13612 34-1032; P26010 20-798); test: cell adhesion assay, CHO/P transfectants
T1 construct: whole, on cells; also called α4β7 on RPMI 8866 cells; α4β7 on HuT 78 cells

human α4β1 integrin [2] = biological target: T2, human α4β1 integrin (human, UniProt P13612 34-1032; P05556 21-798); test: cell adhesion, FIG. 4B legend
T2 construct: whole, on cells; Carried by Jurkat and Ramos cells (α4β1, not α4β7); also called α4β1 on Jurkat cells; α4β1 on Ramos cells
Method: (§1) Where DATK 32 was used in a preincubation with a cell line, prior to the start of the assay, the supernatant or buffer present in the wells (containing the transfectants) was aspirated in order to obtain volume of 0.5 ml total for the adhesion assay.
(§2) Assays were fixed as described above. Plates were washed by gentle inversion in a large beaker of phosphate buffered saline (PBS), followed by inversion in a beaker of PBS with 1.5% gluteraldehyde for fixation for a minimum of 1 hour. Adhesion was assessed by counting both lymphocytes and CHO cells in a field at 20× magnification. For each assay, the number of lymphocytes bound per CHO/P cell was averaged as a minimum of four fields with standard error. Results in each case are from one of three experiments performed with similar results.
(§3) Murine MAdCAM-1 specifically binds lymphocytes expressing α4β7 (and not α4β1). […] Binding of these cell lines was compared to that of transiently transfected CHO/P cells expressing murine MAdCAM-1 and human VCAM-1.

human α4β1 integrin [3] = biological target: T2, human α4β1 integrin; test: cell adhesion assay, CHO/P transfectants
murine α4β7 integrin [4] = biological target: T3, murine α4β7 integrin (mouse, UniProt Q00651 41-1039; P26011 20-806); test: cell adhesion, L1-2 stable transfectants
T3 construct: whole, on cells; Carried by the murine T cell lymphoma TK1; also called α4β7 on TK1 cells

human α4β1 integrin [5] = biological target: T2, human α4β1 integrin; test: functional adhesion assay, CHO/P transfectants, 4° C (FIG. 4B)
Method: as §1, §2, §3

human α4β7 integrin [6] = biological target: T1, human α4β7 integrin; test: cell adhesion, FIG. 5 legend
Method: Clone pcD3huMAd4 (insert from clone 4) or pcD3huMAd20 (insert from clone 20) was transiently transfected into CHO/P cells.
Adhesion of the CHO/P transfectants to RPMI 8866 cells was blocked by preincubation with anti-α4β7 MAb ACT-1, but not by control IgG. […] To further characterize these distinct cDNAs, both clones were completely sequenced.

murine α4β7 integrin [7] = biological target: T3, murine α4β7 integrin; test: cell adhesion, CHO/P transient transfectants
human α4β7 integrin [8] = biological target: T1, human α4β7 integrin; test: cell adhesion, FIG. 4A
Method: as §1, §2, §3

T1 sequence (P13612 34-1032, chain 1 of 2): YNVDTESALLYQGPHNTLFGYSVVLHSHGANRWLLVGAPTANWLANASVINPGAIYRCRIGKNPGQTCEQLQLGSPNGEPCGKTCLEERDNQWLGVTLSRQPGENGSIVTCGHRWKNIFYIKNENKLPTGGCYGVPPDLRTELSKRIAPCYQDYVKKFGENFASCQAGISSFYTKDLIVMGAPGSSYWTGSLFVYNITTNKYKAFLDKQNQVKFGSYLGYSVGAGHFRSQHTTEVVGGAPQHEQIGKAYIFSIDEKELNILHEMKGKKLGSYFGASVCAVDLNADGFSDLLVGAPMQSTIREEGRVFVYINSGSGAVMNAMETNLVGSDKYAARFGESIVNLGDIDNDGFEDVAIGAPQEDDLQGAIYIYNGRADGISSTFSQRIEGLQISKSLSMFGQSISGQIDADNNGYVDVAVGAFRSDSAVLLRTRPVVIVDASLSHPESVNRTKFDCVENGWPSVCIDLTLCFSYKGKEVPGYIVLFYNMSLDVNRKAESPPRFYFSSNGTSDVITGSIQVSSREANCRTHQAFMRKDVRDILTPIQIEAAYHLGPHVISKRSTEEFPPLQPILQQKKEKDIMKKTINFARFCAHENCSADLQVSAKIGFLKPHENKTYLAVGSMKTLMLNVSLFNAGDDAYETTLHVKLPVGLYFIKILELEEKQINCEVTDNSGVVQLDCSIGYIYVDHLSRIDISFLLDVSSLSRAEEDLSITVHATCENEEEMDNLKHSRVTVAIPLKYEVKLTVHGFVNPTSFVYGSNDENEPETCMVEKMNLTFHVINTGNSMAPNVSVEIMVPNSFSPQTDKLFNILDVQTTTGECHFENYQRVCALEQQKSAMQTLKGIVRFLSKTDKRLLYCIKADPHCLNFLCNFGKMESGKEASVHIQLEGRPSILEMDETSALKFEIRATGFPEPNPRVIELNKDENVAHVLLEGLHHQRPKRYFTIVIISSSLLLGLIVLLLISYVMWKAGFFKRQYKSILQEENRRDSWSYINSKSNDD
T1 sequence (P26010 20-798, chain 2 of 2): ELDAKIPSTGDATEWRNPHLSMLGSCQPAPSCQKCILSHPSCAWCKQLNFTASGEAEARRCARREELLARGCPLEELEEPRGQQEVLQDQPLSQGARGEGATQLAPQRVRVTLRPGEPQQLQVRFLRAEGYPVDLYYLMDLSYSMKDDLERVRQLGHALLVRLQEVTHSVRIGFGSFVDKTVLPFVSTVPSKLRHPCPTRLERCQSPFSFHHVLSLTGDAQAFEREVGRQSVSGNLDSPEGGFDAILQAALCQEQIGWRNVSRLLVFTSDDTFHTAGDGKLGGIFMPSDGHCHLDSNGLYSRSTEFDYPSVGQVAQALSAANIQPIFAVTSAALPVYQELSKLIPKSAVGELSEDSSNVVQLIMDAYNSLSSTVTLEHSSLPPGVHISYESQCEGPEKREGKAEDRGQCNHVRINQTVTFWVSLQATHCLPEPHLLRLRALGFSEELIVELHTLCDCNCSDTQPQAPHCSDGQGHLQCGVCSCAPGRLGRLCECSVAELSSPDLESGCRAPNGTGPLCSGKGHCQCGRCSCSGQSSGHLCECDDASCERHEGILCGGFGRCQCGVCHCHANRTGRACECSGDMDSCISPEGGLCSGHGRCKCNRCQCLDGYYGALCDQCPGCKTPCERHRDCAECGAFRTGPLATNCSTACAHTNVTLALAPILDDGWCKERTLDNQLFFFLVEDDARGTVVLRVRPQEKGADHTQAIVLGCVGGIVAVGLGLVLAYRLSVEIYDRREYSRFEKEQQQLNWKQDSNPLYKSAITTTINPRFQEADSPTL
T2 sequence (P13612 34-1032, chain 1 of 2): as the sequence (P13612 34-1032, chain 1 of 2) above
T2 sequence (P05556 21-798, chain 2 of 2): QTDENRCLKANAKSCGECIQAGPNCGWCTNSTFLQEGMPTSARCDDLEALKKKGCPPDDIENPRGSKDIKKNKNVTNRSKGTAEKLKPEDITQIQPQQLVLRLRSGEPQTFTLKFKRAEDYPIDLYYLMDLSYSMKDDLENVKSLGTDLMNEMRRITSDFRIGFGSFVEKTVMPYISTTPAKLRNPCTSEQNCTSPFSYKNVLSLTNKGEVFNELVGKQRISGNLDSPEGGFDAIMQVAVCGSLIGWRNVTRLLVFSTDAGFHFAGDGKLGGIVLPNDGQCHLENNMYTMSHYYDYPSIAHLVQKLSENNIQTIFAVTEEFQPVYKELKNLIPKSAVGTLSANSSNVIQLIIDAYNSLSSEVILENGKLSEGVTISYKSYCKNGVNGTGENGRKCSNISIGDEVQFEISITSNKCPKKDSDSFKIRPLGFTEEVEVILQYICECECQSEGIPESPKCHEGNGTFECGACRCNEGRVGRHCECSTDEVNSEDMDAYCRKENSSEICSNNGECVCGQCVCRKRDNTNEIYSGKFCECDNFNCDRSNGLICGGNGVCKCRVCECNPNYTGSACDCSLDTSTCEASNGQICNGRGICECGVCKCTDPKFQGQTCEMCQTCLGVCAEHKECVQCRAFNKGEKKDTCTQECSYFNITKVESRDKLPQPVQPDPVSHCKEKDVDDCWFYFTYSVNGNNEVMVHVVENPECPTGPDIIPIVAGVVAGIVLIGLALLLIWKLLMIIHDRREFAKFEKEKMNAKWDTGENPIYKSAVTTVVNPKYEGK
T3 sequence (Q00651 41-1039, chain 1 of 2): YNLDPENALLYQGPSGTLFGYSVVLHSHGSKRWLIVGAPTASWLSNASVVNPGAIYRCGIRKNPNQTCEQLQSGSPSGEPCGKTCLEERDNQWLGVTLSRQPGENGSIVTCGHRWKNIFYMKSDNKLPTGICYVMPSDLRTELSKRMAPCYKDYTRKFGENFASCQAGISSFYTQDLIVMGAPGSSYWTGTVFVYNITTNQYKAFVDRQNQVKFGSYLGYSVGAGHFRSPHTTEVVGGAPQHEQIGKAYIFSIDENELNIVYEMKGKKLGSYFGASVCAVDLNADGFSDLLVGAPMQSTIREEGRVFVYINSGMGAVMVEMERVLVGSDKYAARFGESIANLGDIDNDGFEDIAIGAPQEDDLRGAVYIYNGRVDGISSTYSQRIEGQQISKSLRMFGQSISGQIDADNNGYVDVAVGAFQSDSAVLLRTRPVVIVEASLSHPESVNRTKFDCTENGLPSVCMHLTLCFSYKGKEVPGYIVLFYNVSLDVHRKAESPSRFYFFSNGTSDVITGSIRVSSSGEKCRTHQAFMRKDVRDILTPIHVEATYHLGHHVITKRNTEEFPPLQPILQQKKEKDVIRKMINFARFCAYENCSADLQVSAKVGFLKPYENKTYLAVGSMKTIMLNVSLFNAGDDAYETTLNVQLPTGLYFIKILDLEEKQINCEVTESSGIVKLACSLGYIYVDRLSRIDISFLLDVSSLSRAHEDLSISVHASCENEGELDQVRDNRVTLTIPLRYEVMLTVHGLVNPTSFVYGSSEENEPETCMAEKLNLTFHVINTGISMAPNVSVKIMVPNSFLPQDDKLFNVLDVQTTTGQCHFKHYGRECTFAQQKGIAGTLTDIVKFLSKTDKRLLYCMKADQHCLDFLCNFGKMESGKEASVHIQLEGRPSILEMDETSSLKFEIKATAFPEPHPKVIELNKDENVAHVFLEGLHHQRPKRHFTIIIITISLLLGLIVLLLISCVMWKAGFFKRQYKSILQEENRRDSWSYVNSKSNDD
T3 sequence (P26011 20-806, chain 2 of 2): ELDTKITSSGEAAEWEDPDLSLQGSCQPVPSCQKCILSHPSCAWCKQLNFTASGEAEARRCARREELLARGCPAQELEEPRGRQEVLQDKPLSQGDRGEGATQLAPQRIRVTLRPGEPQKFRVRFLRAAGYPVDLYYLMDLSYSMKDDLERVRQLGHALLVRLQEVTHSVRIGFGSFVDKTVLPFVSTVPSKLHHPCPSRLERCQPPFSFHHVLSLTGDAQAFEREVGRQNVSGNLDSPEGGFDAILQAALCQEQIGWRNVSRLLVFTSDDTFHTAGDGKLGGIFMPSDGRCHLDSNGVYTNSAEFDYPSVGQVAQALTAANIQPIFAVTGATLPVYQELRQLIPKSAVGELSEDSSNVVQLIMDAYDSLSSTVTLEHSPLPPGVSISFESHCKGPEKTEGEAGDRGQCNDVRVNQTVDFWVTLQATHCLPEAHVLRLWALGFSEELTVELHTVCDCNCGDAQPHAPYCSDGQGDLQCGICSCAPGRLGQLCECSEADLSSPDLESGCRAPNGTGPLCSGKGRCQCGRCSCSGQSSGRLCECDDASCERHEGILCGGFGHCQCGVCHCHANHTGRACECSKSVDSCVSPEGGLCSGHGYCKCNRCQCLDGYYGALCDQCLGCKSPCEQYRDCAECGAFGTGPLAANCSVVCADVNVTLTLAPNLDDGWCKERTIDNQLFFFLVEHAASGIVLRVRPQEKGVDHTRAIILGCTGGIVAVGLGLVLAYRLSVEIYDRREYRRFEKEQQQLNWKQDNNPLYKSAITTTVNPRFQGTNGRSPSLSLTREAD

B1: seven domain human VCAM-1 (receptor, UniProt P19320 25-739, looked up)
chain: FKIETTPESRYLAQIGDSVSLTCSTTGCESPFFSWRTQIDSPLNGKVTNEGTTSTLTMNPVSFGNEHSYLCTATCESRKLEKGIQVEIYSFPKDPEIHLSGPLEAGKPITVKCSVADVYPFDRLEIDLLKGDHLMKSQEFLEDADRKSLETKSLEVTFTPVIEDIGKVLVCRAKLHIDEMDSVPTVRQAVKELQVYISPKNTVISVNPSTKLQEGGSVTMTCSSEGLPAPEIFWSKKLDNGNLQHLSGNATLTLIAMRMEDSGIYVCEGVNLIGKNRKEVELIVQEKPFTVEISPGPRIAAQIGDSVMLTCSVMGCESPSFSWRTQIDSPLSGKVRSEGTNSTLTLSPVSFENEHSYLCTVTCGHKKLEKGIQVELYSFPRDPEIEMSGGLVNGSSVTVSCKVPSVYPLDRLEIELLKGETILENIEFLEDTDMKSLENKSLEMTFIPTIEDTGKALVCQAKLHIDDMEFEPKQRQSTQTLYVNVAPRDTTVLVSPSSILEEGSSVNMTCLSQGFPAPKILWSRQLPNGELQPLSENATLTLISTKMEDSGVYLCEGINQAGRSRKEVELIIQVTPKDIKLTAFPSESVKEGDTVIISCTCGNVPETWIILKKKAETGDTVLKSIDGAYTIRKAQLKDAGVYECESKNKVGSQLRSLTLDVQGRENNKDYFSPELLVLYFASSLIIPAIGMIIYFARKANMKGSYSLVEAQKSKV
notes: whole, on cells; Transiently expressed on CHO/P cells; also called pCD3VCAM
binding result (human α4β7 integrin [1]): no binding
binding result (human α4β1 integrin [2]): binds

B2: macaque MAdCAM-1 (cDNA clone 31D) (receptor)
chain: QSLQVKPLQVEPPEPVVAVALGASRQLTCRLDCADRGATVQWRGLDTSLGAVQSDAGRSVLTVRNASLSAAGTRVCVGSCGGRTFQHTVRLLVYAFPDQLTISPAALVPGDPEVACTAHKVTPVDPNALSFSLLLGDQELEGAQALGPEVEEEEEEPQEEEDVLFRVTERWRLPTLATPVLPALYCQATMRLPGLELSHRQAIPVLHGPTSREPPDTTSPEPRAATSPETTPQQGSTHSPRSPGSTRTCRPEISQAGPTQGEVIPTGSSKPTGDQLPAALWTSSAVLGLLLLALPTYHLWKRCRHLAEDGAHPPASLSSQPFPL
notes: Expressed on CHO/P or L1-2 cells; also called pcD3pMAd; pCD3PMad
binding result (human α4β1 integrin [3]): no binding

B4: human MAdCAM-1 (cDNA clone 20) (receptor)
chain: QSLQVKPLQVEPPEPVVAVALGASRQLTCRLACADRGASVQWRGLDTSLGAVQSDTGRSVLTVRNASLSAAGTRVCVGSCGGRTFQHTVQLLVYAFPDQLTVSPAALVPGDPEVACTAHKVTPVDPNALSFSLLVGGQELEGAQALGPEVQEEEEEPQGDEDVLFRVTERWRLPPLGTPVPPALYCQATMRLPGLELSHRQAIPVLHSPTSPEPPDTTSPESPDTTSPESPDTTSQEPPDTTSPEPPDKTSPEPAPQQGSTHTPRSPGSTRTRRPEISQAGPTQGEVIPTGSSKPAGDQLPAALWTSSAVLGLLLLALPTYHLWKRCRHLAEDDTHPPASLRLLPQVSAWAGLRGTGQVGISPS
notes: Isoform with a shorter mucin domain, expressed on CHO/P cells; also called pcD3huMAd20
binding result (murine α4β7 integrin [7]): binds
binding result (human α4β7 integrin [6]): binds

The next lines start with the values.

binding result (murine α4β7 integrin [4]): binds
binding result (human α4β1 integrin [5]): no binding
binding result (human α4β7 integrin [6]): binds
B3: human MAdCAM-1 (cDNA clone 4) (receptor)
chain: QSLQVKPLQVEPPEPVVAVALGASRQLTCRLACADRGASVQWRGLDTSLGAVQSDTGRSVLTVRNASLSAAGTRVCVGSCGGRTFQHTVQLLVYAFPDQLTVSPAALVPGDPEVACTAHKVTPVDPNALSFSLLVGGQELEGAQALGPEVQEEEEEPQGDEDVLFRVTERWRLPPLGTPVPPALYCQATMRLPGLELSHRQAIPVLHSPTSPEPPDTTSPEPPNTTSPESPDTTSPESPDTTSQEPPDTTSQEPPDTTSQEPPDTTSPEPPDKTSPEPAPQQGSTHTPRSPGSTRTRRPEISQAGPTQGEVIPTGSSKPAGDQLPAALWTSSAVLGLLLLALPTYHLWKRCRHLAEDDTHPPASLRLLPQVSAWAGLRGTGQVGISPS
notes: also called pcD3huMAd4; pCDhuMAd4

binding result (human α4β1 integrin [5]): no binding
binding result (human α4β7 integrin [8]): binds
B5: murine MAdCAM-1 (receptor, mouse, UniProt Q61826 22-405, looked up)
chain: QSFQVNPPESEVAVAMGTSLQITCSMSCDEGVARVHWRGLDTSLGSVQTLPGSSILSVRGMLSDTGTPVCVGSCGSRSFQHSVKILVYAFPDQLVVSPEFLVPGQDQVVSCTAHNIWPADPNSLSFALLLGEQRLEGAQALEPEQEEEIQEAEGTPLFRMTQRWRLPSLGTPAPPALHCQVTMQLPKLVLTHRKEIPVLQSQTSPKPPNTTSAEPYILTSSSTAEAVSTGLNITTLPSAPPYPKLSPRTLSSEGPCRPKIHQDLEAGWELLCEASCGPGVTVRWTLAPGDLATYHKREAGAQAWLSVLPPGPMVEGWFQCRQDPGGEVTNLYVPGQVTPNSSSTVVLWIGSLVLGLLALVFLAYRLWKCYRPGPRPDTSSCTHL
notes: whole, on cells; Transiently expressed on CHO/P cells; also called pCDMAD-7
